# Test results published in the supplement of paper PMC9112550, “Optimization of the antimicrobial peptide Bac7 by deep mutational scanning” (BMC Biology, 2022).
# Test system: Escherichia coli TOP10
# Assay: shrunken log2 fold change of peptide-encoding DNA abundance (4.5 h post-induction vs induction); higher = less antimicrobial activity (less host growth inhibition)
# Details: time post-induction: 4.5 h; library: site-saturation at positions 5, 18, 19, 20
# 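Further: peptides expressed intracellularly from a pBAD plasmid library in pooled LB shake-flask culture, induced with 0.3% L-arabinose, DNA abundance read by NGS, three biological replicates, DESeq2 with apeglm shrinkage.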
row,Sequence,shrunken log2 fold change
1,RRIRGRPPRLPRPRPRPAYQPRP,0.254
2,RRIRHRPPRLPRPRPRPGTHPRP,0.0646
3,RRIRGRPPRLPRPRPRPHEKPRP,0.0144
4,RRIRQRPPRLPRPRPRPILKPRP,0.14
5,RRIRIRPPRLPRPRPRPIRLPRP,-0.41
6,RRIRIRPPRLPRPRPRPVSKPRP,-0.0544
7,RRIRTRPPRLPRPRPRPTCRPRP,-0.0601
8,RRIRKRPPRLPRPRPRPCTAPRP,0.383
9,RRIRERPPRLPRPRPRPEGEPRP,0.332
10,RRIRVRPPRLPRPRPRPRLDPRP,0.238
11,RRIRARPPRLPRPRPRPKIQPRP,0.26
12,RRIRMRPPRLPRPRPRPYESPRP,0.107
13,RRIRDRPPRLPRPRPRPSVGPRP,0.217
14,RRIRFRPPRLPRPRPRPWLKPRP,-0.111
15,RRIRDRPPRLPRPRPRPPTKPRP,0.00654
16,RRIRVRPPRLPRPRPRPNECPRP,-0.0835
17,RRIRWRPPRLPRPRPRPYVVPRP,-0.256
18,RRIRERPPRLPRPRPRPCTTPRP,-0.172
19,RRIRQRPPRLPRPRPRPMGMPRP,0.0187
20,RRIRGRPPRLPRPRPRPGHDPRP,0.0495
21,RRIRVRPPRLPRPRPRPTQTPRP,0.0438
22,RRIRWRPPRLPRPRPRPDNMPRP,-0.0443

row,Sequence,shrunken log2 fold change
1,RRIRCRPPRLPRPRPRPFPMPRP,-0.274
2,RRIRFRPPRLPRPRPRPNIRPRP,-0.184
3,RRIRDRPPRLPRPRPRPDQFPRP,-0.00947
4,RRIRGRPPRLPRPRPRPPARPRP,1.2
5,RRIRTRPPRLPRPRPRPEKKPRP,0.0368
6,RRIRRRPPRLPRPRPRPWGKPRP,-0.0259
7,RRIRTRPPRLPRPRPRPYTKPRP,-0.248
8,RRIRIRPPRLPRPRPRPGMSPRP,-0.15
9,RRIRFRPPRLPRPRPRPCPAPRP,1.36
10,RRIRPRPPRLPRPRPRPQNQPRP,-0.407
11,RRIRNRPPRLPRPRPRPFGFPRP,-0.132
12,RRIRLRPPRLPRPRPRPNWWPRP,0.117
13,RRIRPRPPRLPRPRPRPMNFPRP,-0.165
14,RRIRGRPPRLPRPRPRPQQCPRP,0.13
15,RRIRERPPRLPRPRPRPAKKPRP,0.00764
16,RRIRRRPPRLPRPRPRPRYSPRP,-0.49
17,RRIRARPPRLPRPRPRPWSPPRP,0.138
18,RRIRLRPPRLPRPRPRPASFPRP,-0.0339
19,RRIRARPPRLPRPRPRPKMPPRP,0.114
20,RRIRYRPPRLPRPRPRPTFNPRP,-0.73
21,RRIRMRPPRLPRPRPRPVMKPRP,0.0713
22,RRIRARPPRLPRPRPRPKALPRP,0.294

row,Sequence,shrunken log2 fold change
1,RRIRYRPPRLPRPRPRPQKKPRP,0.0261
2,RRIRYRPPRLPRPRPRPQWPPRP,-0.533
3,RRIRRRPPRLPRPRPRPNSVPRP,-0.0617
4,RRIRMRPPRLPRPRPRPHNRPRP,-0.172
5,RRIRDRPPRLPRPRPRPGIQPRP,-0.148
6,RRIRVRPPRLPRPRPRPRVPPRP,-0.00723
7,RRIRKRPPRLPRPRPRPCQDPRP,0.0115
8,RRIRVRPPRLPRPRPRPAMRPRP,0.6
9,RRIRCRPPRLPRPRPRPQYKPRP,-0.991
10,RRIRRRPPRLPRPRPRPGKDPRP,-0.0528
11,RRIRCRPPRLPRPRPRPIHKPRP,-0.638
12,RRIRQRPPRLPRPRPRPLWPPRP,0.227
13,RRIRLRPPRLPRPRPRPQAHPRP,-0.217
14,RRIRARPPRLPRPRPRPYDLPRP,0.0526
15,RRIRWRPPRLPRPRPRPPVWPRP,0.478
16,RRIRNRPPRLPRPRPRPILPPRP,-0.297
17,RRIRARPPRLPRPRPRPQAAPRP,1.14
18,RRIRVRPPRLPRPRPRPCSHPRP,-0.246
19,RRIRQRPPRLPRPRPRPERLPRP,-0.0028
20,RRIRNRPPRLPRPRPRPTCFPRP,0.0784
21,RRIRYRPPRLPRPRPRPGQYPRP,-0.414
22,RRIRWRPPRLPRPRPRPNTLPRP,-0.359

row,Sequence,shrunken log2 fold change
1,RRIRWRPPRLPRPRPRPTTSPRP,0.508
2,RRIRWRPPRLPRPRPRPSDGPRP,-0.785
3,RRIRKRPPRLPRPRPRPKGCPRP,0.0534
4,RRIRMRPPRLPRPRPRPIEAPRP,0.111
5,RRIRFRPPRLPRPRPRPGDTPRP,-0.309
6,RRIRARPPRLPRPRPRPEYKPRP,-0.0123
7,RRIRNRPPRLPRPRPRPWTRPRP,-0.00821
8,RRIRDRPPRLPRPRPRPRPMPRP,0.583
9,RRIRKRPPRLPRPRPRPANFPRP,-0.0479
10,RRIRKRPPRLPRPRPRPQPFPRP,0.18
11,RRIRTRPPRLPRPRPRPGCVPRP,0.0396
12,RRIRKRPPRLPRPRPRPYHQPRP,-0.231
13,RRIRWRPPRLPRPRPRPKVTPRP,-0.165
14,RRIRDRPPRLPRPRPRPQVMPRP,0.0256
15,RRIRFRPPRLPRPRPRPETLPRP,0.0591
16,RRIRMRPPRLPRPRPRPNTAPRP,0.0661
17,RRIRYRPPRLPRPRPRPGHQPRP,0.0299
18,RRIRFRPPRLPRPRPRPCLSPRP,-0.0617
19,RRIRQRPPRLPRPRPRPSENPRP,-0.0264
20,RRIRARPPRLPRPRPRPKVVPRP,-0.0348
21,RRIRARPPRLPRPRPRPCFIPRP,-0.333
22,RRIRRRPPRLPRPRPRPMVAPRP,0.363

row,Sequence,shrunken log2 fold change
1,RRIRNRPPRLPRPRPRPQGHPRP,-0.296
2,RRIRKRPPRLPRPRPRPGDTPRP,0.0879
3,RRIRKRPPRLPRPRPRPRNVPRP,0.132
4,RRIRRRPPRLPRPRPRPGGSPRP,0.0293
5,RRIRPRPPRLPRPRPRPWQAPRP,-0.0268
6,RRIRIRPPRLPRPRPRPDFCPRP,-0.42
7,RRIRPRPPRLPRPRPRPRLAPRP,0.507
8,RRIRARPPRLPRPRPRPWFPPRP,-0.0966
9,RRIRSRPPRLPRPRPRPFFAPRP,0.205
10,RRIRIRPPRLPRPRPRPDFQPRP,-0.125
11,RRIRVRPPRLPRPRPRPKTTPRP,-0.0198
12,RRIRHRPPRLPRPRPRPQTWPRP,-0.332
13,RRIRQRPPRLPRPRPRPPECPRP,-0.0742
14,RRIRWRPPRLPRPRPRPLFVPRP,-0.076
15,RRIRTRPPRLPRPRPRPGRDPRP,-0.0751
16,RRIRQRPPRLPRPRPRPWVNPRP,-0.215
17,RRIRWRPPRLPRPRPRPGIRPRP,0.29
18,RRIRSRPPRLPRPRPRPRRIPRP,0.135
19,RRIRDRPPRLPRPRPRPIIRPRP,-0.0604
20,RRIRWRPPRLPRPRPRPIKHPRP,-0.2
21,RRIRGRPPRLPRPRPRPLIKPRP,0.469
